Results as given in paper PMC7118133, “Dual functions of Aire CARD multimerization in the transcriptional regulation of T cell tolerance” (Nature Communications, 2020).
Substitutions are numbered along the chain they refer to. In names and notes the source's numbering stands.

B1: human Aire (hAire) CARD, wild type (domain or fragment, UniProt O43918 1-106, looked up)
chain: MATDAALRRLLRLHRTEIAVAVDSAFPLLHALADHDVVPEDKFQETLHLKEKEGCPQAFHALLSWLLTQDSTAILDFWRVLFKDYNLERYGRLQPILDSFPKDVDL
notes: Autoimmune Regulator (Aire), human, CARD, aa 1-106, subcloned into pET47; Construct His6-3C-hAire CARD; also called WT hAire CARD
B2: mouse Aire (mAire) CARD, wild type (domain or fragment, UniProt Q9Z0E3 1-105, looked up)
chain: MAGGDGMLRRLLRLHRTEIAVAIDSAFPLLHALADHDVVPEDKFQETLRLKEKEGCPQAFHALLSWLLTRDSGAILDFWRILFKDYNLERYSRLHSILDGFPKDV
notes: Autoimmune Regulator (Aire), mouse, CARD, aa 1-105, subcloned into pET50; Forms filaments after the NusA tag is cleaved off at the 3C site; also called WT mAire CARD; source: E. coli BL21(DE3), co-expressed with GroEL/ES + trigger factor, purified (Ni-NTA); tag cleaved with HRV 3C protease; not shown: His6-NusA-His6, N-terminal, cleaved
B3: mouse Aire (mAire) CARD K51A/E52A (domain or fragment, UniProt Q9Z0E3 1-105, looked up)
chain: B2 chain with K51A, E52A
notes: Autoimmune Regulator (Aire), mouse, CARD, aa 1-105, subcloned into pET50; source: E. coli BL21(DE3), co-expressed with GroEL/ES + trigger factor, purified (Ni-NTA; tag cleaved with HRV 3C protease); not shown: His6-NusA-His6, N-terminal, cleaved
B4: mouse Aire (mAire) CARD K53A/E54A (domain or fragment, UniProt Q9Z0E3 1-105, looked up)
chain: B2 chain with K53A, E54A
notes: as for B3
B5: mouse Aire (mAire) CARD R70A/D71A (domain or fragment, UniProt Q9Z0E3 1-105, looked up)
chain: B2 chain with R70A, D71A
notes: Autoimmune Regulator (Aire), mouse, CARD, aa 1-105, subcloned into pET50; The results print R70A/D71A, the methods R70A/R71A; also called R70A/R71A (so printed in the methods); source: E. coli BL21(DE3), co-expressed with GroEL/ES + trigger factor, induced at 25 °C for 4 h, purified (Ni-NTA; tag cleaved with HRV 3C protease); not shown: His6-NusA-His6, N-terminal, cleaved

Experiments:
[1] = target: the molecule itself; experiment: negative-stain electron microscopy; filament formation of purified hAire CARD variants refolded from 6 M GdHCl by dialysis (20 mM HEPES pH 7.5, 1 M KCl, 5 mM βME, 16 h, 4 °C) and kept at 4 °C for another 24 h; diluted in TNE buffer to ~50–200 µg/ml, uranyl formate stain
[2] = target: the molecule itself; experiment: negative-stain electron microscopy; filament formation of purified mAire CARD variants after cleavage of the NusA tag with HRV 3C (4 °C, 16 h); diluted in TNE buffer (100 mM Tris pH 8, 50 mM NaCl, 10 mM EDTA) to ~50–200 µg/ml, uranyl formate stain; WT in Fig. 1b also denatured and refolded

Protein | binding result [1] | binding result [2]
B1 | binds | –
B2 | – | binds
B3 | – | binds
B4 | – | binds
B5 | – | binds
